From article PMC4505335, “Selective targeting of PPARγ by the natural product chelerythrine with a unique binding mode and improved antidiabetic potency” (Scientific Reports, 2015) come the findings set out here.

The target of one experiment is T1, PPARγ (Homo sapiens, UniProt P37231).
T1 construct: gene PPARG; no SRC1 peptide; In-house His6-LBD 206-477 (E. coli) used for crystal and kinase assay
T1 sequence (P37231 234-505 limits assumed): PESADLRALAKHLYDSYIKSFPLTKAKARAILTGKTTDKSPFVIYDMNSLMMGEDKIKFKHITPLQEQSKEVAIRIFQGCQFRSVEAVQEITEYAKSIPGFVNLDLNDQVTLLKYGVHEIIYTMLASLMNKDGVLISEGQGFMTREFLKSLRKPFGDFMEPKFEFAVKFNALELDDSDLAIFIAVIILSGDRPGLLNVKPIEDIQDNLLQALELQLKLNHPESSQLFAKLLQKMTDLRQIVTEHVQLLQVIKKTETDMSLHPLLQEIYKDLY
Briefly: crystal structure at […] Å; Lantha TR-FRET competitive binding; AlphaScreen. On the technique in general: Time-resolved FRET reads energy transfer from a long-lived donor to a nearby acceptor.

The target in experiment [1] is T2, Human PPARγ LBD (residues 206–477) (human, UniProt P37231-2 206-477).
T2 construct: The tag is detected in the AlphaScreen (hexahistidine detection kit); also called NR1C3; source: E. coli BL21(DE3), purified (Ni HiTrap HP, SP-Sepharose); not shown: His6, N-terminal, kept
T2 sequence (looked up): T1 sequence (P37231 234-505 limits assumed)
Briefly: AlphaScreen or HTRF; hexahistidine detection kit; about 20–40 nmol/l His6-PPARγ LBD and 20 nmol/l biotinylated peptide, 5 μg/ml donor and acceptor beads; 50 mmol/l MOPS, 50 mmol/l NaF, 0.05 mmol/l CHAPS, 0.1 mg/ml BSA, pH 7.4; with chelerythrine (5 μmol/l, and dose curves). Conditions: both partners purified.

The target of experiment [2] is T2, Human PPARγ LBD (residues 206–477). Briefly: AlphaScreen or HTRF; hexahistidine detection kit; about 20–40 nmol/l His6-PPARγ LBD and 20 nmol/l biotinylated peptide, 5 μg/ml donor and acceptor beads; 50 mmol/l MOPS, 50 mmol/l NaF, 0.05 mmol/l CHAPS, 0.1 mg/ml BSA, pH 7.4; with rosiglitazone (1 μmol/l, and dose curves). The conditions noted are these: both partners purified. In general terms: In Alpha technology, singlet oxygen from a donor bead excites a nearby acceptor bead.

Where no end group is shown, it is not given here. The star is where a group is joined. Biotin = O=C1N[C@H]2[C@H](CS[C@H]2CCCCC(=O)*)N1

Usually IC50 stands for the concentration needed to halve the response being measured. As to `COc1ccc2c(c[n+](C)c3c4cc5c(cc4ccc23)OCO5)c1OC` [CHE, chelerythrine], the IC50 on PPARγ turned out to be 566 nM.

B1: NCoR-2, a corepressor peptide from NCoR, N-terminally biotinylated (peptide)
peptide: Biotin-GHSFADPASNLGLEDIIRKALMGSF
notes: second corepressor motif peptide from NCoR (nuclear receptor corepressor 1; not the gene NCOR2/SMRT); also called NCoR-2 corepressor
Turning to B1, the binding result in experiment [1] is listed as “binds”.
Biotin-SPSSHSSLTERHKILHRLLQEGSP [SRC1 coactivator peptide, N-terminally biotinylated]: the binding result in experiment [2] is given as “binds”.
The same measure, in the same setting: next, Biotin-QEPVSPKKKENALLRYLLDKDDTKD [SRC2 coactivator peptide, N-terminally biotinylated]: “binds”.
